Source: patent US20200283521A1 (GRANULAR THERAPEUTICS, published 2020)
Numbering of substitutions follows the chain as printed. Where two headings read alike, the source gives them in different places. Each block holds one binder with its values, some of them ahead of it.

Experiments:
[1] = target: T1, human C-KIT-Fc (human, UniProt P10721 26-524); assay: direct ELISA at 1 µg/ml
T1 construct: also called biotinylated human C-KIT-Fc; not shown: Fc part not described

[2] = target: T2, MMP7 (human, UniProt P09237 95-267); assay: cell array, HEK293 re-array slides
T2 construct: whole, on cells
T2 sequence (looked up): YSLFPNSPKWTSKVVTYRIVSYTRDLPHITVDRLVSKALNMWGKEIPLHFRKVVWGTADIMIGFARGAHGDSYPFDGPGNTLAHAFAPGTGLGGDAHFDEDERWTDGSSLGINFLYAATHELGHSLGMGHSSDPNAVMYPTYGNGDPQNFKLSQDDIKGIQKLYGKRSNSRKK

[3] = target: T3, CRIM1 (human, UniProt Q9NZV1 35-1036); assay: cell array, HEK293 re-array slides
T3 construct: whole, on cells
T3 sequence (looked up): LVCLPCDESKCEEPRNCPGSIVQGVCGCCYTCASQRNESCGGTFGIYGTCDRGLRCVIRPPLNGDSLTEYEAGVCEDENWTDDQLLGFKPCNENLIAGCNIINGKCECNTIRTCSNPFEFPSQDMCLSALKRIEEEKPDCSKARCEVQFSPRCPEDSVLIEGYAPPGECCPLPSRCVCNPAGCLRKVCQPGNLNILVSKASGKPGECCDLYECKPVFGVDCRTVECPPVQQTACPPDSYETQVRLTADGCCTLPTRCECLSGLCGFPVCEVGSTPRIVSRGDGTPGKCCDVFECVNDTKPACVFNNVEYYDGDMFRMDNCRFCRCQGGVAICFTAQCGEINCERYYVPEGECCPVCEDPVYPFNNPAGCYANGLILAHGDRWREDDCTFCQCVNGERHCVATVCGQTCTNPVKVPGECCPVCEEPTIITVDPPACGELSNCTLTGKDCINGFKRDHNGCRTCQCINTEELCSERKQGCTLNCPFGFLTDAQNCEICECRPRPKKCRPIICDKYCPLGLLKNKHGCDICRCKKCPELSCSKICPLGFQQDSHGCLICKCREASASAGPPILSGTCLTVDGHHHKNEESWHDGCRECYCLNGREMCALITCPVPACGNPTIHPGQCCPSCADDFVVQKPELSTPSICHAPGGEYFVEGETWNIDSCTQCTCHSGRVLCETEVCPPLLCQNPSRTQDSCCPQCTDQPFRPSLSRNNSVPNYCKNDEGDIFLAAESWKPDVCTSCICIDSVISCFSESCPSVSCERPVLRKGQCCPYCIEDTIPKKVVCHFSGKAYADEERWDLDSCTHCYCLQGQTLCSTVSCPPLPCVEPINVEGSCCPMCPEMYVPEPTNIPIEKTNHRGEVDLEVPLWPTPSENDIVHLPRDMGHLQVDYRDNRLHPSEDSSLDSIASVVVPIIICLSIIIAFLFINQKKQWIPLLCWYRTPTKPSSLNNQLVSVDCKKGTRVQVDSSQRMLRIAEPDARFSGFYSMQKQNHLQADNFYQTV

[4] = target: T4, F13A1 (human, UniProt P00488 39-732); assay: cell array, HEK293 re-array slides
T4 construct: whole, on cells
T4 sequence (looked up): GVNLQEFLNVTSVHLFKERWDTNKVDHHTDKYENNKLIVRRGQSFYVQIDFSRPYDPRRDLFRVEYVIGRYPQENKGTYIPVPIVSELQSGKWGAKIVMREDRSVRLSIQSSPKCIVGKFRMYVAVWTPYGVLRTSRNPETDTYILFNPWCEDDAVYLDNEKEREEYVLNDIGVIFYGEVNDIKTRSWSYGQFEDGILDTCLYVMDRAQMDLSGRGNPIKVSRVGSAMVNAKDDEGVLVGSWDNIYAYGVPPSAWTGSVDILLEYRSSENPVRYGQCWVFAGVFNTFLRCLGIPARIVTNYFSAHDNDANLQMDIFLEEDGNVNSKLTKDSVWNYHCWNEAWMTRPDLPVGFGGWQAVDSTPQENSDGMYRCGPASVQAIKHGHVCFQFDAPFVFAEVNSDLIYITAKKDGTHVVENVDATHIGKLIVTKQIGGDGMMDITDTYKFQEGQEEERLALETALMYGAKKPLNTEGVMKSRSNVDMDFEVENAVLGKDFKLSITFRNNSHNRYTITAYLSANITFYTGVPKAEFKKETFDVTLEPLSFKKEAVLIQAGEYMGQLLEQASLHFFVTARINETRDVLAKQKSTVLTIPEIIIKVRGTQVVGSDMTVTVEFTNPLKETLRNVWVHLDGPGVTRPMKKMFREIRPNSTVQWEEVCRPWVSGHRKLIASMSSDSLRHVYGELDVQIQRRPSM

[5] = target: T1, human C-KIT-Fc; assay: HTRF competition vs Tb-h37M IgG1
[6] = target: T1, human C-KIT-Fc; assay: HTRF competition vs Tb-h37M IgG1; remark: listed apart in the source
[7] = target: T1, human C-KIT-Fc; assay: direct titration ELISA on coated C-KIT-Fc, IgG1 format
[8] = target: T1, human C-KIT-Fc; assay: as above; remark: listed apart in the source
[9] = target: T5, human C-KIT, full length, on cells (human, UniProt P10721 26-976); assay: flow cytometry, C-KIT-transfected CHO-K1 cells, IgG1 format
T5 construct: full-length cDNA stably transfected in CHO-K1; also used here for endogenous C-KIT of TF-1 cells; also called human C-KIT+ CHO-K1 cells; C-KIT on TF-1 cells

[10] = target: T6, cynomolgus monkey C-KIT-Fc (cynomolgus monkey); assay: direct ELISA at 1 µg/ml
T6 construct: also called cyno C-KIT-Fc

[11] = target: T6, cynomolgus monkey C-KIT-Fc; assay: HTRF competition vs Tb-h37M IgG1
[12] = target: T7, cynomolgus monkey C-KIT, full length, on CHO-K1 cells (cynomolgus monkey); assay: flow cytometry, C-KIT-transfected CHO-K1 cells, IgG1 format
T7 construct: whole, on cells; also called cyno C-KIT+ CHO-K1 cells

[13] = target: T8, h4-1BB-Fc; assay: direct ELISA on coated protein, IgG1
T8 construct: member of the panel m9
T8 sequence (chain, as listed by the source limits assumed): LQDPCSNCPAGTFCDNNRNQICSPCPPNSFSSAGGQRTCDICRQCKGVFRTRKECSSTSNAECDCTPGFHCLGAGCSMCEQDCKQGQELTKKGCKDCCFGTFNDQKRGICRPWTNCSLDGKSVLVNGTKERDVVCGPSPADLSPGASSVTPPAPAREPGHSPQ

B2: MH5, human IgG1 (antibody, V domains shown)
VH: QVQLVQSGAEVKKPGASVKVSCKASGYTFTDYYMNWVRQAPGQGLEWMGRIYPGSGNTYYAQKFQGRVTMTRDTSTSTVYMELSSLRSEDTAVYYCARGVYYYDYWGQGTLVTVSS
VL: DIQMTQSPSSLSASVGDRVTITCRASQGIRTNLAWFQQKPGKAPKSLIYSASSLQSGVPSRFSGSGSGTDFTLTISSLQPEDFATYYCQQYANYPRTFGGGTKVEIK
notes: IgG1; also called C-KIT-MH5; C-KIT-MHS
- OD450 nm [1]: > 1.8 OD450 nm
- OD450 nm [10]: > 2 OD450 nm
- IC50 [5]: 0.063 µg/mL
- IC50 [6]: 0.067 µg/mL
- IC50 [11]: 0.058 µg/mL
- EC50 (read off the curve) [7]: ~0.1 µg/mL
- EC50 (read off the curve) [8]: ~0.1 µg/mL
- EC50 (read off the curve) [9]: ~0.3 µg/mL
- EC50 (read off the curve) [12]: ~0.5 µg/mL

B3: MH1, human IgG1 (antibody, V domains shown)
VH: B2 VH
VL: B2 VL with S50A, A92N, N93S
notes: IgG1; also called IgG1-MH1
- OD450 nm [1]: > 1.8 OD450 nm
- OD450 nm [10]: > 2 OD450 nm
- binding result [2]: no binding (tested: 0.5 and 2 µg/ml)
- binding result [3]: no binding (tested: 0.5 and 2 µg/ml)
- binding result [4]: no binding (tested: 0.5 and 2 µg/ml)
- binding result [13]: no binding (tested: 1 µg/ml)
- EC50 (read off the curve) [7]: ~0.1 µg/mL

Next, values leading:

- OD450 nm [1]: > 1.8 OD450 nm
- binding result [2]: no binding (tested: 0.5 and 2 µg/ml)
- binding result [3]: no binding (tested: 0.5 and 2 µg/ml)
- binding result [4]: no binding (tested: 0.5 and 2 µg/ml)
- IC50 [5]: 0.025 µg/mL
- IC50 [6]: 0.016 µg/mL
- EC50 (read off the curve) [7]: ~0.2 µg/mL
- EC50 (read off the curve) [8]: ~0.1 µg/mL
- EC50 (read off the curve) [9]: ~0.2 µg/mL
B1: humanized h37M, human IgG1 (antibody, V domains shown)
VH: QVQLVQSGAEVKKPGASVKLSCKASGYTFTDYYINWVRQAPGKGLEWIARIYPGSGNTYYNEKFKGRATLTADKSTSTAYMQLSSLRSEDTAVYFCARGVYYFDYWGQGTTVTVSS
VL: DIVMTQSPSSLSASVGDRVTITCKASQNVRTNVAWYQQKPGKAPKALIYSASYRYSGVPDRFTGSGSGTDFTLTISSLQPEDFADYFCQQYNSYPRTFGGGTKVEIK
notes: human IgG1; terbium-labelled as the tracer of the HTRF assays; also called C-KIT-h37M; h37M-IgG1

- OD450 nm [1]: > 1.8 OD450 nm
- OD450 nm [10]: > 2 OD450 nm
- IC50 [6]: 0.134 µg/mL
- IC50 [11]: 0.164 µg/mL
- EC50 (read off the curve) [9]: ~0.4 µg/mL
- EC50 (read off the curve) [12]: ~0.4 µg/mL
B4: MH5.22 (antibody, IgG1, V domains shown)
VH: B2 VH with Y32F, G54A, Y101W
VL: B2 VL with S50A
notes: IgG1; also called C-KIT-MH5.22
